Assay results published in publication PMC10790703 (mBio, 2023).

Molecular target: T1, ubiquitin E3 ligase TRIM59 (human (endogenous in 293T), UniProt Q8IWR1 1-403)
T1 construct: TRIM59, ubiquitin E3 ligase primarily located in the ER, in 293T cells
T1 sequence (looked up): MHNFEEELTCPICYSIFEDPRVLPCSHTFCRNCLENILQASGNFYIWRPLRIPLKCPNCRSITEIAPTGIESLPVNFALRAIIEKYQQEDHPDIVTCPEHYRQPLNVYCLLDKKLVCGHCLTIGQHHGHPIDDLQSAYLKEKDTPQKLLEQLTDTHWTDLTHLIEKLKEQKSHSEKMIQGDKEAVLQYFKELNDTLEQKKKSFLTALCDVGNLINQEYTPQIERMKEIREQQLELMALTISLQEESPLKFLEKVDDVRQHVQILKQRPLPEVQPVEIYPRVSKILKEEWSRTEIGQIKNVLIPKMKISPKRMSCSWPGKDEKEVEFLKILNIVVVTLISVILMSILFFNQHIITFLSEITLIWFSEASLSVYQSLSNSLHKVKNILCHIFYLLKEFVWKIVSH
Assay: co-IP
Settings: partners not purified

B1: SARS-CoV-2 ORF3a dG188 mutant, HA-tagged (natural protein)
chain: MDLFMRIFTIGTVTLKQGEIKDATPSDFVRATATIPIQASLPFGWLIVGVALLAVFQSASKIITLKKRWQLALSKGVHFVCNLLLLFVTVYSHLLLVAAGLEAPFLYLYALVYFLQSINFVRIIMRLWLCWKCRSKNPLLYDANYFLCWHTNCYDYCIPYNSVTSSIVITSGDGTTSPISEHDYQIGYTEKWESGVKDCVVLHSYFTSDYYQLYSTQLSTDTGVEHVTFFIYNKIVDEPEEHVQIHTIDGSSGVVNPVMEPIYDEPTTTTSVPL
notes: also called G188 deletion mutant; E-ORF3a (represented by the dG188 mutant); not shown: HA, C-terminal, kept
fold of pulled-down ORF3a against WT ORF3a (densitometry): ~1.5 fold
